The numbers were not newly measured in patent publication US9421247B2, “Biodegradable nanoparticles as novel hemoglobin-based oxygen carriers and methods of using the same” (Vindico NanoBio Technology Inc., priority 2010, dated 2016), which cites them from elsewhere.

Regarding “PolyHeme™: commercial acellular HBOC (Northfield Lab, Evanston, Ill., USA)”, the “adverse physiological effects on infusion/transfusion into animals” value is listed as “induce vasoconstriction”.
On to “free hemoglobin: cell-free hemoglobin infused into animals”, for which the “adverse physiological effects on infusion/transfusion into animals” value was “significant vasoconstriction and kidney damage”.
